Reference: publication PMC3340446

Columns and labels:
[1] = molecular target: Trypanosoma brucei AlkB homolog (TbABH-His6) (Trypanosoma brucei brucei (strain 427 genomic DNA)); experiment: native gel or EMSA
[2] = molecular target: Trypanosoma brucei AlkB homolog (TbABH-His6) (Trypanosoma brucei brucei (strain 427 genomic DNA)); experiment: SEC

stoichiometry N [1]: 4
stoichiometry N [2]: 2
Substance: Trypanosoma brucei AlkB homolog (TbABH-His6) (enzyme)
